One block for each molecule: values may come before it. Where no end group is shown, it is not given here.
Tests used:
[1] = target: fluorescent receptor NK2R-RF1 (construct pCEP4-NK2R-RF1): EGFP fused between the alpha7 signal peptide and the amino-terminal end of the rat NK2R receptor, expressed on HEK 293 cells (Aequorea victoria; rat) (UniProt P16610); assay: displacement of 3H SR 48968 on HEK 293 cells expressing NK2R-RF1, filtration
[2] = target: wild-type rat NK2R receptor of tachykinins (construct pCEP4-NK2R), expressed on HEK 293 cells (rat) (UniProt P16610); assay: displacement of 3H SR 48968 on HEK 293 cells expressing wild-type NK2R, filtration
[3] = target: fluorescent receptor NK2R-RF1 (construct pCEP4-NK2R-RF1): EGFP fused between the alpha7 signal peptide and the amino-terminal end of the rat NK2R receptor, expressed on HEK 293 cells (Aequorea victoria; rat) (UniProt P16610); assay: displacement of 3H SR 48968 on HEK 293 cells expressing NK2R-RF1, filtration (FIG. 8b)
[4] = target: fluorescent receptor NK2R-RF1 (construct pCEP4-NK2R-RF1): EGFP fused between the alpha7 signal peptide and the amino-terminal end of the rat NK2R receptor, expressed on HEK 293 cells (Aequorea victoria; rat) (UniProt P16610); assay: FRET saturation on cells expressing NK2R-RF1, 0 to 256 nM NKA BO I
[5] = target: T1, wild-type rat NK2R receptor of tachykinins (construct pCEP4-NK2R), expressed on HEK 293 cells (rat, UniProt P16610 1-390); assay: displacement of 3H SR 48968 on HEK 293 cells expressing NK2R-WT, filtration (FIG. 8a)
T1 construct: whole, on cells; Stably expressed in HEK 293 cells; also called NK2R-WT; NK2R WT
T1 sequence (looked up): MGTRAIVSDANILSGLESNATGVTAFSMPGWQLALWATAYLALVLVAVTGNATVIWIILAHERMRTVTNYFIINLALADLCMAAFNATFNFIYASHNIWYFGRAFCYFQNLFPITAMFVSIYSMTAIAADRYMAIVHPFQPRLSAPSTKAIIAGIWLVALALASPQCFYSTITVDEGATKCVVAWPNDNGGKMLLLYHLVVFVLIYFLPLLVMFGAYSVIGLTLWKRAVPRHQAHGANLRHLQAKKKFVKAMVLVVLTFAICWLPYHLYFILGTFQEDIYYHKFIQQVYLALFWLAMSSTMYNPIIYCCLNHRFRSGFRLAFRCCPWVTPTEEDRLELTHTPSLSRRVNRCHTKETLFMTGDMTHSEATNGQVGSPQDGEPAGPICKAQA
Description: The incubation is carried out for one hour at 4° C. Filtration is carried out at the end of incubation, as described in 3b).

[6] = target: fluorescent receptor NK2R-RF1 (construct pCEP4-NK2R-RF1): EGFP fused between the alpha7 signal peptide and the amino-terminal end of the rat NK2R receptor, expressed on HEK 293 cells (Aequorea victoria; rat) (UniProt P16610); assay: FRET saturation: amplitude of EGFP fluorescence extinction against NKA BO I concentration, cells expressing NK2R-RF1 (FIG. 13)

Ki [1]: 0.061 µM | Ki [2]: 0.053 µM
Molecule: MEN 10,376 (Bachem) (peptide)

Ki [3]: 0.0021 µM
Molecule: neurokinin A (from UniProt P20366 98-107) (peptide)

Kd [4]: 0.02 to 0.03 µM | Ki [3]: 0.0161 µM | Ki [5]: 0.0161 µM | Kd [6]: 0.024 µM
B1: NKA BO I (neurokinin A labeled with BODIPY 530/550 IA) (peptide, UniProt P20366 98-107, looked up)
peptide: HKTDSFVGLM
modifications: also: BODIPY 530/550 IA label, site not given here
notes: mature; HPLC-purified reaction product of NKA with BODIPY 530/550 IA; also called NKA BO 1; NKA-Bodipy derivative

Reference: US20060275828A1 (CENTRE NATIONAL DE LA RECHERCHE SCIENTIFIQUE, published 2006)
